Changes are numbered by the printed parent chain. Names and notes keep the numbering of the source.
B1: I283T-P284D-N287P-S322T-N388M-C430N-L432F-L434W-S436N-E459P-A463G-Y469D (protein)
chain: MFLKSLREQINLLKRQGDLRIINRPVDSYLEAAAIIRRSTETKAPVPLMTNIKGYPGCSIVGGLAALSSNPEYPLSRVAMSLGLSTTASAQSIVQYLIDGLKKTPYLPVEIDSNSAPCKQNILRGEDASLAHFPIPQVHQHDGNRYVNTWGVFIVESPDGQWCNWSIQRVQYLNDRQMIALVFPSQHISDIWEEWVKIGKPMPYALVQGCEPIVPYIAGLPLLERNVNEAEYIGALYGKGIEVVKCETHDLRVPASSEVVIEGYFAITREGVEGPFGEFAGYTDNEPSLQPILSITAISWQDDPIWPVVAEGKPVDEYHTCTGIGDAAAIQNVLLTANLPVSFVWVPLYSACHLMIVSINRHWRQTHPDLTSEQLTKKVGDVIHQTRMSIKLPKIVVLDDDVDPADTESLLWALATRIHPERKRYFYESNIFPWLNCYSEEERHNRKGKRVIIDALLPPNHGGISSFDDAYPDDIKQRVLMHWETDFSHD
B2: N285M-N287T-S322T-N388M-K394R-C430N-L432F-L434W-S436N-dA463-S465V (protein)
chain: B1 chain with T283I, D284P, N285M, P287T, K394R, P459E, G463A, S465V, D469Y
B3: P284E-N287Q-L289R-S322T-N388M-K394R-C430N-L432F-L434W-S436N-dA463 (protein)
chain: B1 chain with T283I, D284E, P287Q, L289R, K394R, P459E, G463A, D469Y
B4: N285M-N287T-S322T-N388M-K394R-C430N-L432F-L434W-S436N-N460G-dG462 (protein)
chain: B1 chain with T283I, D284P, N285M, P287T, K394R, P459E, N460G, G463A, D469Y
B5: I283F-P284E-N287Q-S322T-N388M-K394R-C430N-L432F-L434W-S436N-dG462 (protein)
chain: B1 chain with T283F, D284E, P287Q, K394R, P459E, G463A, D469Y
B6: I283T-P284D-N287P-S322T-N388M-C430N-L432F-L434W-S436N-A463F-Y469D (protein)
chain: B1 chain with P459E, G463F
B7: P284E-N287Q-L289H-S322T-N388M-K394R-C430N-L432F-L434W-S436N-dA463 (protein)
chain: B1 chain with T283I, D284E, P287Q, L289H, K394R, P459E, G463A, D469Y
B8: N285M-N287T-S322T-N388M-K394R-C430N-L432F-L434W-S436N-dG462-A463F (protein)
chain: B1 chain with T283I, D284P, N285M, P287T, K394R, P459E, G463F, D469Y
B9: I283Q-P284E-N287Q-S322T-N388M-K394R-C430N-L432F-L434W-S436N-dA463 (protein)
chain: B1 chain with T283Q, D284E, P287Q, K394R, P459E, G463A, D469Y
B10: I283T-P284D-N287P-S322T-N388M-C430N-L432F-L434W-S436N-G462P-A463G-Y469D (protein)
chain: B1 chain with P459E, G462P
B11: P284E-N287Q-S322T-N388M-K394R-C430N-L432F-L434W-S436N-dA463-Y469E (protein)
chain: B1 chain with T283I, D284E, P287Q, K394R, P459E, G463A, D469E
B12: P284E-N287Q-S322T-N388M-K394R-C430N-L432F-L434W-S436N-dA463-Y469T (protein)
chain: B1 chain with T283I, D284E, P287Q, K394R, P459E, G463A, D469T
B13: I283L-P284E-N287Q-S322T-N388M-K394R-C430N-L432F-L434W-S436N-dA463 (protein)
chain: B1 chain with T283L, D284E, P287Q, K394R, P459E, G463A, D469Y
B14: I283L-N285M-N287T-S322T-A337T-N388M-K394R-C430N-L432F-L434W-S436N-dG462 (protein)
chain: B1 chain with T283L, D284P, N285M, P287T, A337T, K394R, P459E, G463A, D469Y
B15: S185T-N388M-C430S-L432F-L434W-S436N (protein)
chain: B1 chain with S185T, T283I, D284P, P287N, T322S, N430S, P459E, G463A, D469Y
B16: P284E-N287Q-S322T-N388M-K394R-C430N-L432F-L434W-S436N-dA463-S465A (protein)
chain: B1 chain with T283I, D284E, P287Q, K394R, P459E, G463A, S465A, D469Y
B17: P284D-N287Q-S322T-N388M-K394R-C430N-L432F-L434W-S436N-dA463 (protein)
chain: B1 chain with T283I, P287Q, K394R, P459E, G463A, D469Y
B18: N388M-K394H-C430S-L432F-L434W-S436N (protein)
chain: B1 chain with T283I, D284P, P287N, T322S, K394H, N430S, P459E, G463A, D469Y
B19: N285M-N287T-S322T-N388M-K394R-C430N-L432F-L434W-S436N-dA463-A470S (protein)
chain: B1 chain with T283I, D284P, N285M, P287T, K394R, P459E, G463A, D469Y, A470S
B20: I283T-P284D-E286C-N287P-S322T-N388M-C430N-L432F-L434W-S436N-A463G-Y469D (protein)
chain: B1 chain with E286C, P459E
B21: P284E-N287Q-S322T-N388M-K394R-C430N-L432F-L434W-S436N-G462R-dA463 (protein)
chain: B1 chain with T283I, D284E, P287Q, K394R, P459E, G462R, G463A, D469Y
B22: S185T-N388M-C430P-L432F-L434W-S436N (protein)
chain: B1 chain with S185T, T283I, D284P, P287N, T322S, N430P, P459E, G463A, D469Y
B23: N285M-N287T-S322T-N388M-K394R-C430N-L432F-L434W-S436N-dG462-A463M (protein)
chain: B1 chain with T283I, D284P, N285M, P287T, K394R, P459E, G463M, D469Y
B24: N285M-N287T-S322T-N388M-K394R-C430N-L432F-L434W-S436N-dG462-A470S (protein)
chain: B1 chain with T283I, D284P, N285M, P287T, K394R, P459E, G463A, D469Y, A470S
B25: P284E-N287Q-S322T-N388M-K394R-C430N-L432F-L434W-S436N-dA463-A470T (protein)
chain: B1 chain with T283I, D284E, P287Q, K394R, P459E, G463A, D469Y, A470T
B26: N285M-N287T-S322T-N388M-K394R-C430N-L432F-L434W-S436N-dG462-Y469N (protein)
chain: B1 chain with T283I, D284P, N285M, P287T, K394R, P459E, G463A, D469N
B27: I283T-P284D-N287P-S322T-N388M-i421aG-C430N-L432F-L434W-S436N-A463G-Y469D (protein)
chain: B1 chain with P459E
B28: P284E-N287Q-S322T-N388M-K394R-C430N-L432F-L434W-S436N-dG462-Y469D (protein)
chain: B1 chain with T283I, D284E, P287Q, K394R, P459E, G463A
B29: I283C-P284E-N287Q-S322T-N388M-K394R-C430N-L432F-L434W-S436N-dA463 (protein)
chain: B1 chain with T283C, D284E, P287Q, K394R, P459E, G463A, D469Y
B30: N285M-N287T-S322T-N388M-K394R-C430N-L432F-L434W-S436N-dG462-Y469S (protein)
chain: B1 chain with T283I, D284P, N285M, P287T, K394R, P459E, G463A, D469S
B31: N285M-N287T-S322T-N388M-K394R-C430N-L432F-L434W-S436N-dG462-Y469T (protein)
chain: B1 chain with T283I, D284P, N285M, P287T, K394R, P459E, G463A, D469T
B32: I283T-P284D-N287P-S322T-N388M-C430N-L432F-L434W-S436N-A463G-Y469T (protein)
chain: B1 chain with P459E, D469T
B33: N285M-N287T-S322T-N388M-K394R-C430N-L432F-L434W-S436N-dA463-S465I (protein)
chain: B1 chain with T283I, D284P, N285M, P287T, K394R, P459E, G463A, S465I, D469Y
B34: P284E-N287Q-S322T-N388M-K394R-R422H-C430N-L432F-L434W-S436N-dA463 (protein)
chain: B1 chain with T283I, D284E, P287Q, K394R, R422H, P459E, G463A, D469Y
B35: P284E-N287Q-S322T-N388M-K394R-C430N-L432F-L434W-S436N-dG462-Y469S (protein)
chain: B1 chain with T283I, D284E, P287Q, K394R, P459E, G463A, D469S
B36: N285M-N287T-S322T-N388M-K394R-C430N-L432F-L434W-S436N-dG462-A463V (protein)
chain: B1 chain with T283I, D284P, N285M, P287T, K394R, P459E, G463V, D469Y

These molecules were tested on 3-methylcrotonic acid.
Format: biochemical, Yersinia frederiksenii
Set-up: key: “+” representing a low increase in activity; “++++” representing a high increase in activity

Row | Molecule | Activity relative to WT
1 | B1 | ++++
2 | B2 | ++++
3 | B3 | ++++
4 | B4 | ++++
5 | B5 | ++++
6 | B6 | ++++
7 | B7 | ++++
8 | B8 | ++++
9 | B9 | ++++
10 | B10 | ++++
11 | B11 | ++++
12 | B12 | ++++
13 | B13 | ++++
14 | B14 | ++++
15 | B15 | +
16 | B16 | ++++
17 | B17 | ++++
18 | B18 | +

Row | Molecule | Activity relative to WT
19 | B19 | ++++
20 | B20 | ++++
21 | B21 | ++++
22 | B22 | +
23 | B23 | ++++
24 | B24 | ++++
25 | B25 | ++++
26 | B26 | ++++
27 | B27 | ++++
28 | B28 | ++++
29 | B29 | ++++
30 | B30 | ++++
31 | B31 | ++++
32 | B32 | ++++
33 | B33 | ++++
34 | B34 | ++++
35 | B35 | ++++
36 | B36 | ++++

Reference: patent US20250327097A1, “ORGANISMS PRODUCING LESS CROTONIC ACID” (Global Bioenergies, priority 2021, published 2025)
